From patent US20210403547A1

Target: membrane-bound ligands (TGF-alpha and Epiregulin) on HT-29 cells
Assay: cell-based or functional assay

Mean Ringspot Total Intensity of Fluorescence (internalization into HT-29 cells), 40 ug/mL, 0 min post addition: 94
Mean Ringspot Total Intensity of Fluorescence (internalization into HT-29 cells), 40 ug/mL, 5 min post addition: 116
Mean Ringspot Total Intensity of Fluorescence (internalization into HT-29 cells), 40 ug/mL, 15 min post addition: 126
Mean Ringspot Total Intensity of Fluorescence (internalization into HT-29 cells), 40 ug/mL, 30 min post addition: 124
Mean Ringspot Total Intensity of Fluorescence (internalization into HT-29 cells), 40 ug/mL, 60 min post addition: 167
Mean Ringspot Total Intensity of Fluorescence (internalization into HT-29 cells), 40 ug/mL, 120 min post addition: 177
Mean Ringspot Total Intensity of Fluorescence (internalization into HT-29 cells), dose 0.34 ug/ml, 2 h at 37 C: 1410
Mean Ringspot Total Intensity of Fluorescence (internalization into HT-29 cells), dose 0.69 ug/ml, 2 h at 37 C: 1480
Mean Ringspot Total Intensity of Fluorescence (internalization into HT-29 cells), dose 1.38 ug/ml, 2 h at 37 C: 1470
Mean Ringspot Total Intensity of Fluorescence (internalization into HT-29 cells), dose 2.75 ug/ml, 2 h at 37 C: 1570
Mean Ringspot Total Intensity of Fluorescence (internalization into HT-29 cells), dose 5.5 ug/ml, 2 h at 37 C: 1360
Mean Ringspot Total Intensity of Fluorescence (internalization into HT-29 cells), dose 11 ug/ml, 2 h at 37 C: 1390
Mean Ringspot Total Intensity of Fluorescence (internalization into HT-29 cells), dose 22 ug/ml, 2 h at 37 C: 1760
Mean Ringspot Total Intensity of Fluorescence (internalization into HT-29 cells), dose 44 ug/ml, 2 h at 37 C: 1810
Mean Ringspot Total Intensity of Fluorescence (internalization into HT-29 cells), dose 88 ug/ml, 2 h at 37 C: 2440
Substance: Control IgG (antibody)
